The term stoichiometry N denotes a count of units in the complex or per binding partner.

In this assay the target is phosphorylated PhoP-His (recombinant N-terminal His-tag PhoP protein of Photorhabdus luminescens TT01, phosphorylated in vitro with acetyl phosphate) (Photorhabdus luminescens TT01). Put plainly: Mn2+-Phos-tag SDS-PAGE; 4 ug purified PhoP-His incubated in vitro with 50 mM acetyl phosphate (lane 2) or without (lane 1) in the EMSA buffer; precast 12.5% polyacrylamide Mn2+-Phos-tag gel run at 4°C and 150 V; Coomassie stain. In general terms: A gel shift assay detects complexes by their altered migration in electrophoresis.

With “phosphorylated PhoP-His (recombinant N-terminal His-tag PhoP protein of Photorhabdus luminescens TT01, phosphorylated in vitro with acetyl phosphate) (natural protein)”, the stoichiometry N turned out to be 2.

For the origin of these results see article PMC4198210.
